According to patent US8394929B2, “Nogo receptor-mediated blockade of axonal growth” (Yale University, priority 2000, dated 2013):

T1: NgRΔCT (Mus musculus, UniProt Q99PI8)
T1 construct: encodes residues 26 to 305 and 443 to473 of mNgR; vector secretion signal (pSecTag2) (N); 6xHis (C); expressed in transfected cells; host or cells: COS-7
T1 sequence (Q99PI8 with tags, fused parts or gaps): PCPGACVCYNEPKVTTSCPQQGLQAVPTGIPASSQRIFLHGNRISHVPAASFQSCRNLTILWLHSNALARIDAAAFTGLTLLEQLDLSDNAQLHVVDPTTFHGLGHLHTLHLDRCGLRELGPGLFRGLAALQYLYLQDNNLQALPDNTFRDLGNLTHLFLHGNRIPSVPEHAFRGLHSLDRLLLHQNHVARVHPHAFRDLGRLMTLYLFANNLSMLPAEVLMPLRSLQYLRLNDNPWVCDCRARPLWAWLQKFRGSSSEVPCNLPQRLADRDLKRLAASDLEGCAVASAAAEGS


How the values were obtained:
[1] = tested on: NGF-differentiated PC12 cells; assay: Axon outgrowth from NGF-differentiated PC12 cells; type: cell-based
Description: For all experiments involving cell culture, the following methods were employed. The culture of embryonic chick E10 and E12 dorsal root ganglion explants and dissociated neurons utilized methods described for E7 dorsal root ganglion cultures (Takahashi et al., (1998) Nature Neurosci. 1, 487-493; Takahashi et al., (1999) Cell 99, 59-69; Goshima et al., (1995) Nature 376, 509-514; Jin & Strittmatter, (1997) J. Neurosci. 7, 6256-6263). NGF-differentiated PC12 cells were cultured as described (Strittmatter et al., (1994) J. Neurosci. 14, 2327-2338). Embryonic spinal cord explants (rat E10 or chick E5) were cultured for 7-14 days in the presence of PDGF-AA to induce differentiation of some cells into mature oligodendrocytes (Vartanian et al., (1999) Proc. Natl. Acad. Sci. USA 96, 731-735). The procedure for growth cone collapse assays is identical to that for analysis of Sema3A-induced growth cone collapse (Takahashi et al., (1998) Nature Neurosci. 1, 487-493; Takahashi et al., (1999) Cell 99, 59-69; Goshima et al., (1995) Nature 376, 509-514; Jin & Strittmatter, (1997) J. Neurosci. 17, 6256-6263). The method for analysis of total neurite outgrowth has also been described (Goshima et al., (1995) Nature 376, 509-514; Jin & Strittmatter, (1997) J. Neurosci. 17, 6256-6263; Strittmatter et al., (1994) J. Neurosci. 14, 2327-2338). […]

PlexinA1 (PlexA1) = assay: Growth cone collapse in E7 retinal ganglion cells infected with control HSV PlexinA1; type: cell-based
From the text: Both dorsal root ganglion and retinal neurons from E7 chick embryos were examined. The Nogo responses in the dorsal root ganglion neurons from this developmental stage are weak but slight responses can be detected in some cultures (data not shown).
Growth cone collapse in response to GST-hNogo-A (1055-1120) was investigated in infected RGC cultures. Retinal explants infected with recombinant viral preparations of PlexinA1 (PlexA1), wild-type NgR (wtNgR), NgRL1 chimeric receptor in which the GPI domain has been replaced by the transmembrane region and cytoplasmic tail from the mouse adhesion protein L1 (NgRL1), or NgR carboxy terminal deletion mutant (NgRΔCT) for 12 hr. Following infection, the cells were treated for 30 min with 0, 50, 250, or 500 nM GST-hNogo-A (1055-1120) (GrandPre et al., Nature 403: 439-444, 2000), fixed with 4% paraformaldehyde with 0.1 M PO4 and 20% sucrose, and stained with phalloidin. […] Cells infected with NgRΔCT were insensitive to GST-hNogo-A (1055-1120). The CT region of NgR is therefore required for effective NgR inhibitory signaling.

NgRΔCT = target: T1, NgRΔCT; assay: AP-hNogo-A (1055-1120) binding to COS-7 cells transfected with NgRΔCT
From the text: The NgRΔCT contruct encodes residues 26 to 305 and 443 to473 of mNgR, thereby including the LRR and GPI regions of mNgR. Primers MycNgR ([…]) and 2NgRt313 ([…]) were used to amplify a sequence from the wtNgR-pSecTag2Hygro plasmid. Primers TM/GPI5 (5′-[…]-3′) and NgR3X (above) were used to amplify a sequence from the wtNgR-pSecTag2Hygro plasmid. The amplified sequences were ligated together at the NotI site and then ligated into the BamHI/XhoI sites of pSecTag2.
To determine whether mNgR or mNgR deletion mutants bound to hNogo-A (1055-1120), wtNgR or mNgR deletion mutants were transfected into COS-7 cells. Forty-eight hours after the transfection, the transfected COS-7 cells were washed with hanks balanced salt solution containing 20 mM sodium HEPES, pH 7.05, and 1 mg/ml bovine serum albumin (BSA) [hereinafter “HBH”]. Cells were then incubated for 2 hours at 23° C. with a conditioned medium enriched with purified AP-hNogo-A (1055-1120) diluted in HBH. AP-fusion protein was detected as previously described for AP-Sema3A (Takahashi et al., Nature Neurosci. 1:487-493, 1998).

| Molecule | axonal outgrowth (in words) ([1]; bound to substrate surfaces) | axon outgrowth (in words) ([1]; soluble, nM concentrations) | growth cone collapse response (in words) (PlexinA1 (PlexA1); listed as GST-hNogo-A (1055-1120)) | growth cone collapse response (in words) (PlexinA1 (PlexA1); listed as Nogo-66) | binding (in words) (NgRΔCT) |
| --- | --- | --- | --- | --- | --- |
| GST-Nogo: GST fusion protein of the 66 amino acid lumenal-extracellular fragment of Nogo-A, expressed in E. coli (protein, also: GST fusion protein, GST fusion protein of the 66 amino acid lumenal-extracellular fragment of Nogo-A, expressed in E. coli) RIYKGVIQAIQKSDEGHPFRAYLESEVAISEELVQKYSNSALGHVNCTIKELRRLFLVDDLVDSLK | reduced to undetectable levels | blocked | did not respond | does not alter Nogo responses | – |
| AP-Nogo: fusion protein of His6 tag, placental alkaline phosphatase (AP) and the 66 amino acid active domain of Nogo (protein) HHHHHHIIPVEEENPDFWNREAAEALGAAKKLQPAQTAAKNLIIFLGDGMGVSTVTAARILKGQKKDKLGPEIPLAMDRFPYVALSKTYNVDKHVPDSGATATAYLCGVKGNFQTIGLSAAARFNQCNTTRGNEVISVMNRAKKAGKSVGVVTTTRVQHASPAGTYAHTVNRNWYSDADVPASARQEGCQDIATQLISNMDIDVILGGGRKYMFRMGTPDPEYPDDYSQGGTRLDGKNLVQEWLAKRQGARYVWNRTELMQASLDPSVTHLMGLFEPGDMKYEIHRDSTLDPSLMEMTEAALRLLSRNPRGFFLFVEGGRIDHGHHESRAYRALTETIMFDDAIERAGQLTSEEDTLSLVTADHSHVFSFGGYPLRGSSIFGLAPGKARDRKAYTVLLYGNGPGYVLKDGARPDVTESESGSPEYRQQSAVPLDEETHAGEDVAVFARGPQAHLVHGVQEQTFIAHVMAFAACLEPYTACDLAPPAGTTDAAHPGRIYKGVIQAIQKSDEGHPFRAYLESEVAISEELVQKYSNSALGHVNCTIKELRRLFLVDDLVDSLK | – | – | – | – | bound |
